Test results as given in article PMC3278561 (Plant Cell Reports, 2011).

Target: the molecule itself
Test: transmission electron microscopy

B1: plant-derived Norwalk virus capsid protein (NVCP), assembled as virus-like particles (VLP) (natural protein)
chain: MMMASKDATSSVDGASGAGQLVPEVNASDPLAMDPVAGSSTAVATAGQVNPIDPWIINNFVQAPQGEFTISPNNTPGDVLFDLSLGPHLNPFLLHLSQMYNGWVGNMRVRIMLAGNAFTAGKIIVSCIPPGFGSHNLTIAQATLFPHVIADVRTLDPIEVPLEDVRNVLFHNNDRNQQTMRLVCMLYTPLRTGGGTGDSFVVAGRVMTCPSPDFNFLFLVPPTVEQKTRPFTLPNLPLSSLSNSRAPLPISSMGISPDNVQSVQFQNGRCTLDGRLVGTTPVSLSHVAKIRGTSNGTVINLTELDGTPFHPFEGPAPIGFPDLGGCDWHINMTQFGHSSQTQYDVDTTPDTFVPHLGSIQANGIGSGNYVGVLSWISPPSHPSGSQVDLWKIPNYGSSITEATHLAPSVYPPGFGEVLVFFMSKMPGPGAYNLPCLLPQEYISHLASEQAPTVGEAALLHYVDPDTGRNLGEFKAYPDGFLTCVPNGASSGPQQLPINGVFVFVSWVSRFYQLKPVGTASSARGRLGLRR
B1: binds.
